Target: C3b
Experiment: SPR

- Kd: 98 nM
B1: TriFu_no_linker (triple fusion complement inhibitor without polyglycine linker between DAF and FH) (other)
chain: DCGLPPDVPNAQPALEGRTSFPEDTVITYKCEESFVKIPGEKDSVICLKGSQWSDIEEFCNRSCEVPTRLNSASLKQPYITQNYFPVGTVVEYECRPGYRREPSLSPKLTCLQNLKWSTAVEFCKKKSCPNPGEIRNGQIDVPGGILFGATISFSCNTGYKLFGSTSSFCLISGSSVQWSDPLPECREIYCPAPPQIDNGIIQGERDHYGYRQSVTYACNKGFTMIGEHSIYCTVNNDEGEWSGPPPECRGGKCGPPPPIDNGDITSFPLSVYAPASSVEYQCQNLYQLEGNKRITCRNGQWSEPPKCLHPCVISREIMENYNIALRWTAKQKLYSRTGESVEFVCKRGYRLSSRSHTLRTTCWDGKLEYPTCAKRGHCQAPDHFLFAKLKTQTNASDFPIGTSLKYECRPEYYGRPFSITCLDNLVWSSPKDVCKRKSCKTPPDPVNGMVHVITDIQVGSRINYSCTTGHRLIGHSSAECILSGNTAHWSTKPPICQRIPCGLPPTIANGDFISTNRENFHYGSVVTYRCNLGSRGRKVFELVGEPSIYCTSNDDQVGIWSGPAPQCII
